Assay results: patent publication US20220378829A1 (CRISPR THERAPEUTICS, published 2022)

Target: T1, CD70 on human cancer cell lines (A498, ACHN, SK-OV-3, Hs 766T, NCI-H1975, Calu-1, DU 145, SNU-1, MM.1S, HuT78) (human, UniProt P32970 1-193)
T1 sequence (looked up): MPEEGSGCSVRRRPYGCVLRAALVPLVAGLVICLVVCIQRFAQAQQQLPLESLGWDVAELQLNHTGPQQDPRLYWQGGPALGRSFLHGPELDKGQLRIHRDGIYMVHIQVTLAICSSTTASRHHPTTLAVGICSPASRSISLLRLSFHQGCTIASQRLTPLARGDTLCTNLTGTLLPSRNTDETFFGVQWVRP
Test: cell-based or functional assay

B1: anti-CD70 CAR (CD70B scFv with 41BB), expressed on the surface of gene-edited human T cells (CTX130: TRAC-/β2M-/CD70-/anti-CD70 CAR+ T cells) (other)
chain: QVQLVQSGAEVKKPGASVKVSCKASGYTFTNYGMNWVRQAPGQGLKWMGWINTYTGEPTYADAFKGRVTMTRDTSISTAYMELSRLRSDDTAVYYCARDYGDYGMDYWGQGTTVTVSSGGGGSGGGGSGGGGSGDIVMTQSPDSLAVSLGERATINCRASKSVSTSGYSFMHWYQQKPGQPPKLLIYLASNLESGVPDRFSGSGSGTDFTLTISSLQAEDVAVYYCQHSREVPWTFGQGTKVEIKSAAAFVPVFLPAKPTTTPAPRPPTPAPTIASQPLSLRPEACRPAAGGAVHTRGLDFACDIYIWAPLAGTCGVLLLSLVITLYCNHRNRKRGRKKLLYIFKQPFMRPVQTTQEEDGCSCRFPEEEEGGCELRVKFSRSADAPAYQQGQNQLYNELNLGRREEYDVLDKRRGRDPEMGGKPRRKNPQEGLYNELQKDKMAEAYSEIGMKGERRRGKGHDGLYQGLSTATKDTYDALHMQALPPR
Question: What does the source list for B1?
Answer: cell lysis of A498 cells by TRAC-/β2M-/CD70-/anti-CD70 CAR+ T cells, T cell:A498 ratios 1:1 and 0.5:1, 24 h (Cell titer-Glo): > 90%; cell lysis of A498 cells by TRAC-/β2M-/anti-CD70 CAR+ T cells (2×KO), T cell:A498 ratios 1:1 and 0.5:1, 24 h (Cell titer-Glo): < 90%
